{"source": "patent US20020076795A1", "about": "“Novel TRF1 binding protein, methods of use thereof” (published 2002)", "molecules": {"B1": {"name": "human TRF1 (telomeric repeat binding factor 1), expressed from pcDNA3-hTRF1 in HeLaI cells (other, UniProt P54274 1-439, looked up)", "chain": "MAEDVSSAAPSPRGCADGRDADPTEEQMAETERNDEEQFECQELLECQVQVGAPEEEEEEEEDAGLVAEAEAVAAGWMLDFLCLSLCRAFRDGRSEDFRRTRNSAEAIIHGLSSLTACQLRTIYICQFLTRIAAGKTLDAQFENDERITPLESALMIWGSIEKEHDKLHEEIQNLIKIQAIAVCMENGNFKEAEEVFERIFGDPNSHMPFKSKLLMIISQKDTFHSFFQHFSYNHMMEKIKSYVNYVLSEKSSTFLMKAAAKVVESKRTRTITSQDKPSGNDVEMETEANLDTRKSVSDKQSAVTESSEGTVSLLRSHKNLFLSKLQHGTQQQDLNKKERRVGTPQSTKKKKESRRATESRIPVSKSQPVTPEKHRARKRQAWLWEEDKNLRSGVRKYGEGNWSKILLHYKFNNRTSVMLKDRWRTMKKLKLISSDSED"}, "B2": {"name": "baculovirus-derived N-terminally [His]6-tagged fusion protein of human tankyrase (protein)", "chain": "MAASRRSQHHHHHHQQQLQPAPGASAPPPPPPPPLSPGLAPGTTPASPTASGLAPFASPRHGLALPEGDGSRDPPDRPRSPDPVDGTSCCSTTSTICTVAAAPVVPAVSTSSAAGVAPNPAGSGSNNSPSSSSSPTSSSSSSPSSPGSSLAESPEAAGVSSTAPLGPGAAGPGTGVPAVSGALRELLEACRNGDVSRVKRLVDAANVNAKDMAGRKSSPLHFAAGFGRKDVVEHLLQMGANVHARDDGGLIPLHNACSFGHAEVVSLLLCQGADPNARDNWNYTPLHEAAIKGKIDVCIVLLQHGADPNIRNTDGKSALDLADPSAKAVLTGEYKKDELLEAARSGNEEKLMALLTPLNVNCHASDGRKSTPLHLAAGYNRVRIVQLLLQHGADVHAKDKGGLVPLHNACSYGHYEVTELLLKHGACVNAMDLWQFTPLHEAASKNRVEVCSLLLSHGADPTLVNCHGKSAVDMAPTPELRERLTYEFKGHSLLQAAREADLAKVKKTLALEIINFKQPQSHETALHCAVASLHPKRKQVTELLLRKGANVNEKNKDFMTPLHVAAERAHNDVMEVLHKHGAKMNALDTLGQTALHRAALAGHLQTCRLLLSYGSDPSIISLQGFTAAQMGNEAVQQILSESTPIRTSDVDYRLLEASKAGDLETVKQLCSSQNVNCRDLEGRHSTPLHFAAGYNRVSVVEYLLHHGADVHAKDKGGLVPLHNACSYGHYEVAELLVRHGASVNVADLWKFTPLHEAAAKGKYEICKLLLKHGADPTKKNRDGNTPLDLVKEGDTDIQDLLKGDAALLDAAKKGCLARVQKLCTPENINCRDTQGRNSTPLHLAAGYNNLEVAEYLLEHGADVNAQDKGGLIPLHNAASYGHVDIAALLIKYNTCVNATDKWAFTPLHEAAQKGRTQLCALLLAHGADPTMKNQEGQTPLDLATADDIRALLIDAMPPEALPTCFKPQATVVSASLISPASTPSCLSAASSIDNLTGPLAELAVGGASNAGDGAAGTERKEGEVAGLDMNISQFLKSLGLEHLRDIFETEQITLDVLADMGHEELKEIGINAYGHRHKLIKGVERLLGGQQGTNPYLTFHCVNQGTILLDLAPEDKEYQSVEEEMQSTIREHRDGGNAGGIFNRYNVIRIQKVVNKKLRERFCHRQKEVSEENHNHHNERMLFHGSPFINAIIHKGFDERHAYIGGMFGAGIYFAENSSKSNQYVYGIGGGTGCPTHKDRSCYICHRQMLFCRVTLGKSFLQFSTMKMAHAPPGHHSVIGRPSVNGLAYAEYVIYRGEQAYPEYLITYQIMKPEAPSQTATAAEQKT"}, "B3": {"name": "LexA (alone) (other, UniProt P0A7C2 1-202, looked up)", "chain": "MKALTARQQEVFDLIRDHISQTGMPPTRAEIAQRLGFRSPNAAEEHLKALARKGVIEIVSGASRGIRLLQEEEEGLPLVGRVAAGEPLLAQQHIEGHYQVDPSLFKPNADFLLRVSGMSMKDIGIMDGDLLAVHKTQDVRNGQVVVARIDDEVTVKRLKKQGNKVELLPENSEFKPIVVDLRQQSFTIEGLAVGVIRNGDWL", "notes": "Control"}}, "key": {"[1]": {"target": "amino-terminal acidic domain of TRF1 fused to LexA (LexAd68-C) (human) (UniProt P54274)", "experiment": "cell-based or functional assay"}, "[2]": {"target": "T1, FLAG-tankyrase (encoding amino acids 2-1327 of SEQ ID NO:2) (human, UniProt O95271 2-1327)", "T1 construct": "Expressed by transient transfection in HeLaI cells; also called exogenous tankyrase; transfected tankyrase", "T1 sequence": "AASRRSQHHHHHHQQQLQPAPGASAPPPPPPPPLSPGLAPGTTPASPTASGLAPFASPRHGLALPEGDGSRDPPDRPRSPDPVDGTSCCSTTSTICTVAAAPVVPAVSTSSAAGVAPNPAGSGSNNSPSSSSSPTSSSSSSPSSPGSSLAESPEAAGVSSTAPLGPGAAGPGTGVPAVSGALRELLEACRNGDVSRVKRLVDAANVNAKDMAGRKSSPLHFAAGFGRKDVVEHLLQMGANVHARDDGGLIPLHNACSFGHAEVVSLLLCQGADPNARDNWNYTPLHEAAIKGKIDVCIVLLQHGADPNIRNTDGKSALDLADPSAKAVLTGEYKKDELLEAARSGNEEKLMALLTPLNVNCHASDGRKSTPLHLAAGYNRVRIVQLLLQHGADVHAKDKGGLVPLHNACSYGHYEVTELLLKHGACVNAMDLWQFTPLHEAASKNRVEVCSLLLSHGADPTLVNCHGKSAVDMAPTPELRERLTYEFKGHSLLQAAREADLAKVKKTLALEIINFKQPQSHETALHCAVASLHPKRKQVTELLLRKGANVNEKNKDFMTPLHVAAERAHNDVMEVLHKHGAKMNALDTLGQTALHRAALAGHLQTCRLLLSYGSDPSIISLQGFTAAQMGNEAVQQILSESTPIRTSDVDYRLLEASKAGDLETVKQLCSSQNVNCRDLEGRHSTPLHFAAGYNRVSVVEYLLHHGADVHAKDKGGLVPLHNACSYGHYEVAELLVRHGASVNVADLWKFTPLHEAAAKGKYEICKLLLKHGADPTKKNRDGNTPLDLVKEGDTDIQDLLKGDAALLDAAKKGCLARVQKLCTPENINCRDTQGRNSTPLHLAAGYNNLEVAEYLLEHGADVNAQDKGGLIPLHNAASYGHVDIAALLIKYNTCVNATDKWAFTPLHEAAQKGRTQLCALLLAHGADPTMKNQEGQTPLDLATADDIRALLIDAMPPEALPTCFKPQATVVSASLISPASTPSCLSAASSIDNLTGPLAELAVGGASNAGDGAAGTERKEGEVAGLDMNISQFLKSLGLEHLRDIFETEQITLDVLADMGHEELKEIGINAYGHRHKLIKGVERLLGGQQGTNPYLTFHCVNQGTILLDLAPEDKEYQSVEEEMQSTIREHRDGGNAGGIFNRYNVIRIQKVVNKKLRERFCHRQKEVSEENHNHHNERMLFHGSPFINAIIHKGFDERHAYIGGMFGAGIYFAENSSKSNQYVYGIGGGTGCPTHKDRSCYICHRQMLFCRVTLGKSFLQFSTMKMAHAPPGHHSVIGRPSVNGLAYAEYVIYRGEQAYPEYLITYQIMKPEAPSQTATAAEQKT", "experiment": "indirect immunofluorescence of co-transfected HeLaI cells (co-localization, nuclear translocation)"}, "[3]": {"target": "T2, TRF2 (telomeric repeat binding factor 2), Q15554", "T2 chain": "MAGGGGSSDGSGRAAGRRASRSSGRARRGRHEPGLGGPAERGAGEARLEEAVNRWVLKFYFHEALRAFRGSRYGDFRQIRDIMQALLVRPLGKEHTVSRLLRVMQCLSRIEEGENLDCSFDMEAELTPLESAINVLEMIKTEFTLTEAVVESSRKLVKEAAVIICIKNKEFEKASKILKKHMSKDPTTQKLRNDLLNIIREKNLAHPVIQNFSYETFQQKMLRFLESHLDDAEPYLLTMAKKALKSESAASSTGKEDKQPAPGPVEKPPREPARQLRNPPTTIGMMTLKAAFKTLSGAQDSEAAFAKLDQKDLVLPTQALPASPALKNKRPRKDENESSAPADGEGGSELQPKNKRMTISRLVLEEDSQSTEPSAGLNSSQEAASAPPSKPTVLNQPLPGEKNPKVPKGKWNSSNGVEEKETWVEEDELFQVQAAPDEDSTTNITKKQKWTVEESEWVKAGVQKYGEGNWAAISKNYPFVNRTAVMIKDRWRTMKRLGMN"}, "[4]": {"target": "T3, baculovirus-derived TRF1, P54274", "T3 chain": "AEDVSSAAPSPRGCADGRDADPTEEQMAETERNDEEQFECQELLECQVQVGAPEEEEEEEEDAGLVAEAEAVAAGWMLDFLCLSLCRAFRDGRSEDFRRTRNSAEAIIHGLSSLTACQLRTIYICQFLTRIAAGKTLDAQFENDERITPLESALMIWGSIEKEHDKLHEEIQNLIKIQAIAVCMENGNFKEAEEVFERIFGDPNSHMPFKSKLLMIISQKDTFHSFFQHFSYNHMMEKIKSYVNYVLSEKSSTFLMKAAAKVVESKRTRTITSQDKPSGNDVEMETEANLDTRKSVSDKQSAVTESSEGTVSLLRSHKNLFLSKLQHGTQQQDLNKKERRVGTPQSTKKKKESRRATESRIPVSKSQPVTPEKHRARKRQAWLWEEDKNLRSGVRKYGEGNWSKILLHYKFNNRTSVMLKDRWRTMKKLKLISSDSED"}, "[5]": {"target": "T4, GAD-tankyrase hybrid containing 10 internal ANK repeats (9-19) (TR1L-12) (human, UniProt O95271 436-797)", "T4 construct": "the construct holds only ANK repeats 9-19; also called 10-ANK repeat domain of tankyrase", "T4 sequence": "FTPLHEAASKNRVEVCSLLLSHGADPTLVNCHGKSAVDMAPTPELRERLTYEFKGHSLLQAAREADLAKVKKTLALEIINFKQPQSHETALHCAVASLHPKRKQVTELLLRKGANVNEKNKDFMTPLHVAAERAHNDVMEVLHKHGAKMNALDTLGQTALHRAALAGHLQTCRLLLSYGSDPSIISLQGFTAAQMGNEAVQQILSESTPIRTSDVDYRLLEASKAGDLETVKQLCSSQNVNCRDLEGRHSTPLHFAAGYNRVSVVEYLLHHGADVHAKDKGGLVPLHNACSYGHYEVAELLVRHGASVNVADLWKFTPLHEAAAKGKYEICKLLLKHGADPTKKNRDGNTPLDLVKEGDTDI", "experiment": "yeast two-hybrid, β-galactosidase; LexA without TRF1 sequences", "description": "TR1L-4 and TR1L-12 were isolated from a human liver two-hybrid cDNA library (Clontech) created in pGad10. The library was screened with human full length TRF1 cDNA fused to LexA (LexA-TRF1) [Bianchi et al., EMBO J., 16:1785-1794 (1997)] in the yeast strain L40 as described [Hollenberg et al., Mol. Cell Biol., 15:3813-3822 (1995)]. Two-hybrid analysis was performed as described by Bianchi et al. [EMBO J., 16:1785-1794 (1997)]. β-galactosidase assays for the two-hybrid analysis was performed as described by Bianchi et al. [EMBO J., 16:1785-1794 (1997)].\nTwo-hybrid analysis was used to determine the interacting domains between tankyrase and TRF1. […] To determine the tankyrase-interacting domain in TRF1, two-hybrid analysis was performed with the 10-ANK repeat domain of TR1L-12 fused to the GAL4 activation domain (GAD-tankyrase) and full-length and deletion constructs of TRF1 fused to LexA. […] As observed previously, the amino-terminal acidic domain of TFR1 (LexAd68-C) activated transcription even in the absence of tankyrase sequences in the GAD fusion partner. […] Deletion of the acidic domain of TRF1 (ΔN66-LexA) abolished the interaction with GAD-tankyrase."}}}
{"molecule": "GAD-tankyrase hybrid containing 10 internal ANK repeats (9-19) (TR1L-12) (from UniProt O95271 436-797)", "values": [{"measurement": "β-galactosidase levels (two-hybrid)", "setting": "[1]", "result": 50.4, "unit": "units"}]}
{"molecule": "B1", "values": [{"measurement": "binding result", "setting": "[2]", "result": "binds"}]}
{"molecule": "B2", "values": [{"measurement": "ADP-ribosylation (PARP assay)", "setting": "[3]", "result": "TRF2 is not a substrate for modification in vitro"}, {"measurement": "ADP-ribosylation of TRF1 (PARP assay with [32P]NAD+)", "setting": "[4]", "result": "Tankyrase also has the ability to modify TRF1"}]}
{"molecule": "B3", "values": [{"measurement": "binding result", "setting": "[5]", "result": "no binding"}]}
